From US20230302100A1 (published 2023) come the findings set out here.

The target of test [1] is rabbit anti-BSA (ACRIS, #R1048P). As to the kind of experiment: cell-based or functional assay.
The next test addresses denosumab (XGEVA). As to the kind of experiment: cell-based or functional assay.

B1: pCART201 (enzyme)
chain: MSVWTKGVTPLTPEQFRYNNEDVIHAPYLAHQGWYDITKAFDGKDNLLCGAATAGNMLHWWFDQNKTEIEAYLSKHPEKQKIIFNNQELFDLKAAIDTKDSQTNSQLFNYFRDKAFPNLSARQLGVMPDLVLDMFINGYYLNVFKTQSTDVNRPYQDKDKRGGIFDAVFTRGDQTTLLTARHDLKNKGLNDISTIIKQELTEGRALALSHTYANVSISHVINLWGADFNAEGNLEAIYVTDSDANASIGMKKYFVGINAHGHVAISAKKIEGENIGAQVLGLFTLSSGKDIWQKLSGGGHHHHHH
As for B1, the “pCART124 ratio (fold change in potency relative to IdeS), ELISA-based potency assay” value in test [1] worked out at 8 fold over pCART124.

B2: pCART203 (enzyme)
chain: MDDYQRNATEAYAKEVPHQITSVWTKGVTPPEQFTQGEDVIHAPYLAHQGWYDITKAFDGKDNLLCGAATAGNMLHWWFDQNKTEIEAYLSKHPEKQKIIFNNQELFDLKAAIDTKDSQTNSQLFNYFRDKAFPNLSARQLGVMPDLVLDMFINGYYLNVFKTQSTDVNRPYQDKDKRGGIFDAVFTRGDQTTLLTARHDLKNKGLNDISTIIKQELTEGRALALSHTYANVSISHVINLWGADFNAEGNLEAIYVTDSDANASIGMKKYFVGINAHGHVAISAKKIEGENIGAQVLGLFTLSSGKDIWQKLSGGGHHHHHH
As for B2, the “pCART124 ratio (fold change in potency relative to IdeS), ELISA-based potency assay” value in test [1] is approximately 3.5 fold over IdeS. In addition, the “IgG2 (denosumab) cleavage, SDS-PAGE titration: fold efficacy over IdeZ” value with denosumab (XGEVA) was approximately 3 fold vs pCART144.

B3: pCART197 (enzyme)
chain: MDDYQRNATEAYAKEVPHQITSVWTKGVTPLTPEQFRYNNEDVIHAPYLANQGWYDITKAFDGKDNLLCGAATAGNMLHWWFDQNKTEIEAYLSKHPEKQKIIFRNQELFDLKEAIRTKDSQTNSQLFEYFRDKAFPYLSARQLGVMPDLVLDMFINGYYLNVFKTQSTDVKRPYQDKDKRGGIFDAVFTRGNQTTLLTARHDLKNKGLNDISTIIKEELTKGRALALSHTYANVSISHVINLWGADFNAEGNLEAIYVTDSDANASIGMKKYFVGINKHGHVAISAKKIEGENIGAQVLGLFTLSSGKDIWQKLNGGGHHHHHH
Turning to B3, the “pCART124 ratio (fold change in potency relative to IdeS), ELISA-based potency assay” value in test [1] came to 8 fold over pCART124.
